Laboratory results taken from patent US20170355774A1 (Regeneron, published 2017).

What was measured:
[1] = target: T1, hGITR.mmh (human); assay: SPR 37C, mAb capture
T1 construct: soluble monomeric construct; also called human (h) GITR.mmh; monomeric human GITR
T1 chain: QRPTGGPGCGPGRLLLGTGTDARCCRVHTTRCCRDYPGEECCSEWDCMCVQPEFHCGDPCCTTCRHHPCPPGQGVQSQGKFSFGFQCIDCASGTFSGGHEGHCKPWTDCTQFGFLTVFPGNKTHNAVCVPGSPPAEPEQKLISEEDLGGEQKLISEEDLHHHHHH
Experimental: (§1) (Table 3). […] GITR proteins were injected over the sensor surface at a flow rate of 30 μL/minute. All Biacore binding studies were performed in a buffer composed of 0.01M HEPES pH 7.4, 0.15M NaCl, 3 mM EDTA, 0.05% v/v Surfactant P20 (HBS-ET running buffer). Antibody-reagent association was monitored for 4 minutes while dissociation in HBS-ET running buffer (10 mM HEPES, 150 mM NaCl, 3 mM EDTA, 0.05% (v/v) Surfactant P20, pH 7.4) was monitored for 10 minutes. Kinetic association (kₐ) and dissociation (kd) rate constants were determined by fitting the real-time sensorgrams to a 1:1 binding model using Scrubber 2.0c curve fitting software. Binding dissociation equilibrium constants (KD) and dissociative half-lives (t ½) were calculated from the kinetic rate constants as: KD [M]=kd/kₐ; and t_{1/2}(min)=(ln 2/(60*kd). Results are summarized in Table 3.

[2] = target: T2, hGITR.mFc (human); assay: SPR 37C, mAb capture
T2 construct: soluble dimeric construct with mouse Fc; also called dimeric human GITR
T2 chain: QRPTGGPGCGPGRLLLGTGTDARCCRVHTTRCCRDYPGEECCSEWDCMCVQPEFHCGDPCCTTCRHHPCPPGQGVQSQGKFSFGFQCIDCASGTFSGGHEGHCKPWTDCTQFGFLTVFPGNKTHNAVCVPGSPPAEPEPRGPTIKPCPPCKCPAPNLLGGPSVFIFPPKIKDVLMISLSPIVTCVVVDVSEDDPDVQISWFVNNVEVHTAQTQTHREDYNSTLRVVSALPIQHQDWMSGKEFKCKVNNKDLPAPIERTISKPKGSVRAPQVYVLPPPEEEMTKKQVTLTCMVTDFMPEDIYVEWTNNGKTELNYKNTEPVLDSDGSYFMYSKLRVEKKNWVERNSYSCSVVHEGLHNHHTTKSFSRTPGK
Experimental: as §1

[3] = target: T3, mfGITR.mmh (Macaca fasicularis); assay: SPR 37C, mAb capture
T3 construct: soluble monomeric construct; also called Macaca fasicularis (mf) GITR.mmh; cynomolgus GITR protein
T3 chain: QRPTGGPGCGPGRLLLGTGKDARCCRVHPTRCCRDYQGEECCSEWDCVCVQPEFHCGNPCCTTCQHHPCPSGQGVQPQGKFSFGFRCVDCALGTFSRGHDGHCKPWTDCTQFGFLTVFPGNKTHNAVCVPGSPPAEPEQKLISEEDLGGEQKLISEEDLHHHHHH
Experimental: as §1

[4] = target: T4, human GITR (amino acids M1-V241, NCBI Accession #NP_004186.1) expressed on cells (human, UniProt Q9Y5U5 26-241); assay: cell-based or functional assay
T4 sequence: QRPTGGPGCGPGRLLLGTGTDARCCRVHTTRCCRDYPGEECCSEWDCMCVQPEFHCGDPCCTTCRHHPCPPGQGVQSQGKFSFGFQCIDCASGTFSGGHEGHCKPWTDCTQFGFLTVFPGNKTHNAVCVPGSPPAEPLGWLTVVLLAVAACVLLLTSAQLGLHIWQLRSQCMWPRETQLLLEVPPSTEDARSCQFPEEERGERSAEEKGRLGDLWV

[5] = target: T4, human GITR (amino acids M1-V241, NCBI …); assay: cell-based or functional assay; remark: listed apart in the source
[6] = target: T4, human GITR (amino acids M1-V241, NCBI …); assay: cell-based or functional assay; remark: listed apart in the source
[7] = target: T4, human GITR (amino acids M1-V241, NCBI …); assay: cell-based or functional assay; remark: listed apart in the source
[8] = target: T4, human GITR (amino acids M1-V241, NCBI …); assay: ECL cell binding, hGITR/HEK293-D9
Experimental: Nonspecific binding sites were blocked with 2% BSA (w/v)+PBS for 1 h at room temperature (RT). Next, serial dilutions of anti-GITR antibodies, ranging from 1.7 pM to 100 nM, were added to cells for 1 h at RT. Plates were then washed to remove unbound antibodies (AquaMax2000 plate washer, MSD Analytical Technologies) and plate-bound antibodies were detected with a SULFO-TAG™ conjugated anti-human kappa light chain IgG antibody (Jackson Immunoresearch) for 1 h at RT.
Following washes, luminescent signals were recorded with a SECTOR Imager 6000 (MSD) instrument. Direct binding signals (relative light units, RLU) were analyzed as a function of the antibody concentration and data were fitted with a sigmoidal (four-parameter logistic) dose-response model using GraphPad Prism™ software. […] The signal detected with 100 nM antibody binding to the hGITR expressing cells versus parental cells was recorded as an indication of intensity and specificity of GITR binding.

Binder	Kd [1]	koff [1]	kon [1]	t½ [1]	Kd [2]	koff [2]	kon [2]	t½ [2]	Kd [3]	koff [3]	kon [3]	t½ [3]	% Activation, NF-kB-Luc, non-anchored [4]	% Blocking, NF-kB-Luc, non-anchored [4]	EC50, hGITR activation, NF-kB-Luc, non-anchored [4]	IC50, blocking of hGITRL stimulation, NF-kB-Luc, non-anchored [4]	fold activation, T-cell proliferation, plate-bound Ab 10.6 nM, donor 1 [5]	fold activation, T-cell proliferation, plate-bound Ab 10.6 nM, donor 2 [5]	fold activation, T-cell proliferation, plate-bound Ab 10.6 nM, donor 3 [5]	fold activation, T-cell proliferation, plate-bound Ab 10.6 nM, donor 4 [5]	further results
H4H14508P (antibody, human IgG4, V domains shown, human IgG4 (H4H)) VH: QVQLVESGGGVVQPGRSLRLSCAASGLTVSSYVMHWVRQAPGKGLEWVAIIWYDGSNKYYGDSVKGRFTISRDNSKKTLYLQMNSLRAEDTAVYYCARGRPLSSSSSDYYGLDVWGQGTTVTVSS VL: AIQMTQSPSSLSASVGDRVTIICRASQGIRNDLGWYQQKPGKAPNLLIYAASSLQSGVPSRFSGSGSGTDFTLTISSLQPEDFATYYCLQDYNYPWTFGQGTKVEIK	36.6 nM	0.00935 s⁻¹	255000 M⁻¹ s⁻¹	1.2 min	0.597 nM	0.000719 s⁻¹	1.21e+06 M⁻¹ s⁻¹	16.1 min	39.3 nM	0.00507 s⁻¹	129000 M⁻¹ s⁻¹	2.3 min	30%	40%	1.2 nM	0.9 nM	10 fold	4 fold	4 fold	7 fold	fold activation, T-cell proliferation, plate-bound Ab 10.6 nM, donor 5 [5]: 4 fold; fold activation, T-cell proliferation, plate-bound Ab 10.6 nM, donor 6 [5]: 11 fold; fold activation, T-cell proliferation, plate-bound Ab 10.6 nM, donor 7 [5]: 3 fold; fold activation, T-cell proliferation, plate-bound Ab 10.6 nM, donor 8 [5]: 2 fold; fold activation, T-cell proliferation, plate-bound Ab 10.6 nM, mean [5]: 5 fold; fold activation, T-cell proliferation, 33 nM, FcgR anchored, donor 1 [6]: 1 fold; fold activation, T-cell proliferation, 33 nM, FcgR anchored, donor 2 [6]: 0.7 fold; fold activation, T-cell proliferation, 33 nM, FcgR anchored, donor 3 [6]: 1.1 fold; fold activation, T-cell proliferation, 33 nM, FcgR anchored, donor 4 [6]: 1.8 fold; fold activation, T-cell proliferation, 33 nM, FcgR anchored, donor 5 [6]: 1.3 fold; fold activation, T-cell proliferation, 33 nM, FcgR anchored, mean [6]: 1.2 fold; fold activation, T-cell proliferation, 22 nM, non-anchored, donor 1 [7]: 0.7 fold; fold activation, T-cell proliferation, 22 nM, non-anchored, donor 2 [7]: 0.9 fold; fold activation, T-cell proliferation, 22 nM, non-anchored, donor 3 [7]: 0.9 fold; fold activation, T-cell proliferation, 22 nM, non-anchored, donor 4 [7]: 1.4 fold; fold activation, T-cell proliferation, 22 nM, non-anchored, mean [7]: 1 fold; Average Signal (RLU) at 100 nM [8]: 6870 RLU; EC50 [8]: 0.45 nM
H4H14469P (antibody, human IgG4, V domains shown, human IgG4 (H4H)) VH: QVQLVESGGGVVQPGGSLRLSCAVSGFTFSDYGMHWVRQVPGAGLEWVAVIYYEGSNKYYADSVKGRFTISRDNSKNTLYLQMNSLRVEDTSMYFCARGPLLGGNFYSYLMDVWGQGTTVTVSS VL: AIQMTQSPSSLSASVGDRVTITCRASQGIRNGLGWYQQKPGKAPKLLIYTASSLQSGVPSRFSGSGSGTDFTLTISSLQPEDFATYYCLQDYNYPFSFGPGTKVDIK	43 nM	0.0122 s⁻¹	284000 M⁻¹ s⁻¹	0.9 min	0.335 nM	0.000401 s⁻¹	1.2e+06 M⁻¹ s⁻¹	28.8 min	41.1 nM	0.00243 s⁻¹	59100 M⁻¹ s⁻¹	4.7 min	50%	90%	2.3 nM	0.7 nM	3 fold	12 fold	12 fold	15 fold	fold activation, T-cell proliferation, plate-bound Ab 10.6 nM, donor 5 [5]: 12 fold; fold activation, T-cell proliferation, plate-bound Ab 10.6 nM, donor 6 [5]: 17 fold; fold activation, T-cell proliferation, plate-bound Ab 10.6 nM, donor 7 [5]: 11 fold; fold activation, T-cell proliferation, plate-bound Ab 10.6 nM, donor 8 [5]: 11 fold; fold activation, T-cell proliferation, plate-bound Ab 10.6 nM, mean [5]: 12 fold; fold activation, T-cell proliferation, 33 nM, FcgR anchored, donor 1 [6]: 0.7 fold; fold activation, T-cell proliferation, 33 nM, FcgR anchored, donor 2 [6]: 1 fold; fold activation, T-cell proliferation, 33 nM, FcgR anchored, donor 3 [6]: 0.9 fold; fold activation, T-cell proliferation, 33 nM, FcgR anchored, donor 4 [6]: 1.5 fold; fold activation, T-cell proliferation, 33 nM, FcgR anchored, donor 5 [6]: 1.5 fold; fold activation, T-cell proliferation, 33 nM, FcgR anchored, mean [6]: 1.1 fold; fold activation, T-cell proliferation, 22 nM, non-anchored, donor 1 [7]: 0.9 fold; fold activation, T-cell proliferation, 22 nM, non-anchored, donor 2 [7]: 0.8 fold; fold activation, T-cell proliferation, 22 nM, non-anchored, donor 3 [7]: 1 fold; fold activation, T-cell proliferation, 22 nM, non-anchored, donor 4 [7]: 0.9 fold; fold activation, T-cell proliferation, 22 nM, non-anchored, mean [7]: 0.9 fold; Average Signal (RLU) at 100 nM [8]: 5230 RLU; EC50 [8]: 0.23 nM
H4H14525P (antibody, human IgG4, V domains shown, human IgG4 (H4H)) VH: QVQLVESGGGVVQPGRSLRLSCAASGFTFSSYGMHWVRQAPGKGLEWVAVIWYVGSNKYYGESVKGRFTISRDNSKNTLYLQMNSLRDEDTAIYYCARGGQLGSFYYYGMDVWGQGTTVTVSS VL: DIQMTQSPSSLSASVGDRVTITCRASQGIRNDLGWYQQKPGKAPKRLIYDVSSLQSGVPSRFSGSGSGTEFTLTISSLQPEDLATYYCLQHNSYPWTFGQGTKVEIK	52.4 nM	0.0166 s⁻¹	317000 M⁻¹ s⁻¹	0.7 min	0.427 nM	0.000338 s⁻¹	791000 M⁻¹ s⁻¹	34.2 min	155 nM	0.0205 s⁻¹	133000 M⁻¹ s⁻¹	0.6 min	20%	70%	1.1 nM	1.4 nM	6 fold	1 fold	1 fold	2 fold	fold activation, T-cell proliferation, plate-bound Ab 10.6 nM, donor 5 [5]: 1 fold; fold activation, T-cell proliferation, plate-bound Ab 10.6 nM, donor 6 [5]: 3 fold; fold activation, T-cell proliferation, plate-bound Ab 10.6 nM, donor 7 [5]: 2 fold; fold activation, T-cell proliferation, plate-bound Ab 10.6 nM, donor 8 [5]: 1 fold; fold activation, T-cell proliferation, plate-bound Ab 10.6 nM, mean [5]: 2 fold; fold activation, T-cell proliferation, 33 nM, FcgR anchored, donor 1 [6]: 1.2 fold; fold activation, T-cell proliferation, 33 nM, FcgR anchored, donor 2 [6]: 0.8 fold; fold activation, T-cell proliferation, 33 nM, FcgR anchored, donor 3 [6]: 1 fold; fold activation, T-cell proliferation, 33 nM, FcgR anchored, donor 4 [6]: 1.5 fold; fold activation, T-cell proliferation, 33 nM, FcgR anchored, donor 5 [6]: 1.5 fold; fold activation, T-cell proliferation, 33 nM, FcgR anchored, mean [6]: 1.2 fold; fold activation, T-cell proliferation, 22 nM, non-anchored, donor 1 [7]: 0.7 fold; fold activation, T-cell proliferation, 22 nM, non-anchored, donor 2 [7]: 1 fold; fold activation, T-cell proliferation, 22 nM, non-anchored, donor 3 [7]: 0.9 fold; fold activation, T-cell proliferation, 22 nM, non-anchored, donor 4 [7]: 1 fold; fold activation, T-cell proliferation, 22 nM, non-anchored, mean [7]: 0.9 fold; Average Signal (RLU) at 100 nM [8]: 8840 RLU; EC50 [8]: 0.6 nM
